Experimental data published in PMC11087256, “Interferon-induced transmembrane protein-1 competitively blocks Ephrin receptor A2-mediated Epstein–Barr virus entry into epithelial cells” (Nature Microbiology, 2024).
Where “and” joins values, the source holds several entries; their conditions need not be identical. Identical values can stand only once.

Key:
GST-EphA2 [1] = molecular target: T1, GST-EphA2 (UniProt P29317 24-976); assay: ELISA; as the ELISA on GST-EphA2-coated plates, gH/gL or gB incubated in the presence of IFITM1 (concentration of IFITM1 not stated); details: both partners purified
T1 construct: EphA2; The methods name both pGEX6p-1-GST/His and pET28a as the vector; also called glutathione S-transferase (GST)-EphA2

GST-EphA2 [2] = molecular target: T1, GST-EphA2; assay: ELISA; 200 ng GST-EphA2 coated on 96-well plates overnight at 4 °C, blocked with 5% BSA in PBS; gradient concentrations of 6×His proteins, 2 h at room temperature; anti-His or anti-GST antibody, HRP secondary, absorbance at 450 nm; details: both partners purified

B1: 6×His-gB (natural protein)
chain: AQTPEQPAPPATTVQPTATRQQTSFPFRVCELSSHGDLFRFSSDIQCPSFGTRENHTEGLLMVFKDNIIPYSFKVRSYTKIVTNILIYNGWYADSVTNRHEEKFSVDSYETDQMDTIYQCYNAVKMTKDGLTRVYVDRDGVNITVNLKPTGGLANGVRRYASQTELYDAPGWLIWTYRTRTTVNCLITDMMAKSNSPFDFFVTTTGQTVEMSPFYDGKNKETFHERADSFHVRTNYKIVDYDNRGTNPQGERRAFLDKGTYTLSWKLENRTAYCPLQHWQTFDSTIATETGKSIHFVTDEGTSSFVTNTTVGIELPDAFKCIEEQVNKTMHEKYEAVQDRYTKGQEAITYFITSGGLLLAWLPLTPRSLATVKNLTELTTPTSSPPSSPSPPAPSAARGSTPAAVLRRRRRDAGNATTPVPPTAPGKSLGTLNNPATVQIQFAYDSLRRQINRMLGDLARAWCLEQKRQNMVLRELTKINPTTVMSSIYGKAVAAKRLGDVISVSQCVPVNQATVTLRKSMRVPGSETMCYSRPLVSFSFINDTKTYEGQLGTDNEIFLTKKMTEVCQATSQYYFQSGNEIHVYNDYHHFKTIELDGIATLQTFISLNTSLIENIDFASLELYSRDEQRASNVFDLEGIFREYNFQAQNIAGLRKDLDNAVSNGRNQFVDGLGELMDSLGSVGQSITNLVSTVGGLFSSLVSGFISFFKNPFGGMLILVLVAGVVILVISLTRRTRQMSQQPVQMLYPGIDELAQQHASGEGPGINPISKTELQAIMLALHEQNQEQKRAAQRAAGPSVASRALQAARDRFPGLRRRRYHDPETAAALLGEAETEF
EC50 with IFITM1 (GST-EphA2 [1]): 84.3 nM
EC50 (GST-EphA2 [2]): 41.7 nM and 39.6 nM
